Assay results from patent US20080063651A1 (published 2008).

B1: clone T09.12 (designed binder)
chain: VSDVPRDLEVVAATPTSLLISWRPTSNPPRYYRITYGETGGNSPVQEFTVPPWASTATISGLKPGVDYTITVYAVTAQTGHHLHDKPISINYRT
B2: clone M12.04 (designed binder)
chain: VSDVPGDLEVVAATPTSLLIGWSMTPNWPRYYRIAYGETGGDSPVQEFTVPPWASIAIIGGLKPGVDYTITVYAVTHRDTPISINYRT

Molecular target: T1, Recombinant human TNF-α (human, UniProt P01375 77-233)
T1 construct: also called tumor necrosis factor-α; biotinylated TNF-α
Experiment: 35S-labelled free protein with biotinylated TNF-α, biotin capture membrane, phosphorimaging

T1 sequence (P01375 77-233 limits assumed): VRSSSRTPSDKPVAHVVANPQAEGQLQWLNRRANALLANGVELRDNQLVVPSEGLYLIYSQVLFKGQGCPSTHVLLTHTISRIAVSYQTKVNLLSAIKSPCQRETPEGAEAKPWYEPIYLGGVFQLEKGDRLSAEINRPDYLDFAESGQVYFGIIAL

| Binder | Kd [µM] |
| --- | --- |
| B1 | 0.004 |
| B2 | 20 |
